Test results taken from paper PMC3237733.

Molecular target: dansylated-FadAc (Fusobacterium nucleatum 12230) (UniProt Q5I6B0)
Assay: other fluorescence titration

B1: GST-VE-cadherin_(415–534) (domain or fragment)
chain: KGQFFRVTKKGDIYNEKELDREVYPWYNLTVEAKELDSTGTPTGKESIVQVHIEVLDENDNAPEFAKPYQPKVCENAVHGQLVLQISAIDKDITPRNVKFKFILNTENNFTLTDNHDNTA
For B1, the Kd was 15.9 µM.
